Numbered stars: 1 amine (or outer) side, 2 acyl side, 3 side chain; on linkers, the order of the positions; unused ones are H or OH. Square brackets hold non-standard residues; d marks the D form. * marks the point of attachment. 2,6‑difluorophenyl ester = C-terminal 2,6-difluorophenyl ester (dfp), Fc1cccc(F)c1O*; Asp(OMe) = aspartyl methyl ester, COC(=O)C[C@H](N[*:1])C(=O)[*:2]; Quinaldoyl = O=C(c1ccc2ccccc2n1)*
Target: T1, human recombinant caspase-2 (human, UniProt P42575 170-452, limits assumed)
T1 sequence (looked up): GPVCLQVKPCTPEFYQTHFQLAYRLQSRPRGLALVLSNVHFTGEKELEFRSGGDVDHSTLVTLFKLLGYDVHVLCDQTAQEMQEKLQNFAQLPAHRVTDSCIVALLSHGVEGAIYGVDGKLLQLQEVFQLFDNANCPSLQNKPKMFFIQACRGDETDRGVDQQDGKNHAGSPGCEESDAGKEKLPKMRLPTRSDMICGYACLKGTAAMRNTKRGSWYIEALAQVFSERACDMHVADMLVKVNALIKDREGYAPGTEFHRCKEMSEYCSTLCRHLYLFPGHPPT
Test: cell-based or functional assay

B1: 2-Quinolinylcarbonyl-L-Valinyl-L-Aspartyl (methyl ester)-L-Valinyl-L-Alanyl-L-Aspartyl (methyl ester) 2,6-difluorophenyl ester (peptide)
peptide: Quinaldoyl-V[Asp(OMe)]VA[Asp(OMe)]-{2,6‑difluorophenyl ester}
SMILES: COC(=O)C[C@H](NC(=O)[C@@H](NC(=O)c1ccc2ccccc2n1)C(C)C)C(=O)N[C@H](C(=O)N[C@@H](C)C(=O)N[C@@H](CC(=O)OC)C(=O)Oc1c(F)cccc1F)C(C)C
- IC50 (in vitro inhibition of human recombinant caspase-2): 80 nM
